The target in this experiment is toll-like receptor 5 (TLR5) (human (endogenous in MDA-MB-468 and MDA-MB-231)) (UniProt O60602).
UniProt O60602, sequence (O60602 21-858): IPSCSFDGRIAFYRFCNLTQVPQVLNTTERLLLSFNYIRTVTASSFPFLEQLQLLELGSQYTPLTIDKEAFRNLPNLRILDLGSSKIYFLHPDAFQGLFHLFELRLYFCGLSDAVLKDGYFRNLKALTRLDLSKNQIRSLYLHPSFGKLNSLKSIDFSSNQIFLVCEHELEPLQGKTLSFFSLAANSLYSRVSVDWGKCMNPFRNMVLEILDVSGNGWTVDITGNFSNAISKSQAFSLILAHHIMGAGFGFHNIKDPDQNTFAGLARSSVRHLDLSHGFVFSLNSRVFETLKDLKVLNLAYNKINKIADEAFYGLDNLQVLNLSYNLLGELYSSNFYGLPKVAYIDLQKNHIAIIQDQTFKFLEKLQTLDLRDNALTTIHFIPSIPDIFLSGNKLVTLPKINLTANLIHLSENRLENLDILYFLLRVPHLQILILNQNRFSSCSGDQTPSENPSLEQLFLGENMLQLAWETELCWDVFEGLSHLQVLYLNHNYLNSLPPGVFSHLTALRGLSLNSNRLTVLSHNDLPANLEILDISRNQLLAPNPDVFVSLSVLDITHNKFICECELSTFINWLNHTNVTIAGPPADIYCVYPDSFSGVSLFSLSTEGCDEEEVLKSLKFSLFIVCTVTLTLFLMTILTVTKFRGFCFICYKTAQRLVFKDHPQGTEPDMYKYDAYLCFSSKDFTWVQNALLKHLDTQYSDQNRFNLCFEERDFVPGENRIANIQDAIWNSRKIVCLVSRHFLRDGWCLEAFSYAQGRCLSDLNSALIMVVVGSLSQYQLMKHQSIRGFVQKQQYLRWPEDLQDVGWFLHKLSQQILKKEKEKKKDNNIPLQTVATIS

“fibronectin EDA (FnEDA) domain (domain or fragment)” displayed a percent of IL-8 release (ELISA) by MDA-MB-231 cells in response to FnEDA (5 µM) that is inhibited by a blocking antibody to TLR5 of 30%.

Values taken from article PMC9265717.
